Substrate in data set [1]: OCC(O)COc1ccccc1
Nature of the data set: purified protein. Type of data set: biochemical, Geobacillus stearothermophilus. The conditions noted are these: 1 mM NAD+, 100 mM sodium phosphate pH 7, 30 °C, free enzyme.

Substrate in data set [2]: CCOCC(O)CO
Nature of the data set: purified protein. The conditions noted are these: 1 mM NAD+, 100 mM sodium phosphate pH 7, 30 °C, free enzyme. Format: biochemical, Geobacillus stearothermophilus.

Substrate in data set [3]: OCC(O)COCC(F)(F)F
Nature of the data set: purified protein. The conditions noted are these: 1 mM NAD+, 100 mM sodium phosphate pH 7, 30 °C, free enzyme. Type of data set: biochemical, Geobacillus stearothermophilus.

Substrate in data set [4]: OCC(O)CO
In words: purified protein. Format: biochemical, Geobacillus stearothermophilus. The conditions noted are these: 1 mM NAD+, 100 mM sodium phosphate pH 7, 30 °C, free enzyme.

Substrate in data set [5]: OCC(O)COc1ccccc1
In words: purified protein, by the assay type. The conditions noted are these: 30.0 °C.

What is called Km is the concentration of substrate that gives half-maximal velocity. What is called Vmax is the top rate of the reaction or transport when substrate is in excess. One may read the kcat as the number of substrate molecules converted per active site and unit of time at saturation. As usually defined, the kcat/Km is the second-order rate constant that governs catalysis at low substrate concentration.

B1: BsGlyDH (GlyDH from Bacillus stearothermophilus) (Geobacillus stearothermophilus) (protein)
chain: MAAERVFISPAKYVQGKNVITKIANYLEGIGNKTVVIADEIVWKIAGHTIVNELKKGNIAAEEVVFSGEASRNEVERIANIARKAEAAIVIGVGGGKTLDTAKAVADELDAYIVIVPTAASTDAPTSALSVIYSDDGVFESYRFYKKNPDLVLVDTKIIANAPPRLLASGIADALATWVEARSVIKSGGKTMAGGIPTIAAEAIAEKCEQTLFKYGKLAYESVKAKVVTPALEAVVEANTLLSGLGFESGGLAAAHAIHNGFTALEGEIHHLTHGEKVAFGTLVQLALEEHSQQEIERYIELYLSLDLPVTLEDIKLKDASREDILKVAKAATAEGETIHNAFNVTADDVADAIFAADQYAKAYKEKHRK
For B1, the Km came to 7 ± 2 mM in data set [1]; 13.4 ± 0.4 mM in data set [2]; 78 ± 8 mM in data set [3]; 50 ± 3 mM in data set [4]; 6.6 mM in data set [5]. The Vmax in data set [1] was 0.14 µmol/min/mg; in data set [2] it was 0.036 µmol/min/mg; in data set [3], 0.06 µmol/min/mg; in data set [4], 1.4 µmol/min/mg. The kcat in data set [1] was determined as 0.7 ± 0.1 s⁻¹; in data set [2] it was 0.19 ± 0.003 s⁻¹; in data set [3] it was 0.32 ± 0.01 s⁻¹; in data set [4], 7.4 ± 0.2 s⁻¹. The kcat/Km worked out at 112 M⁻¹ s⁻¹ in data set [1], 14 M⁻¹ s⁻¹ in data set [2], 4 M⁻¹ s⁻¹ in data set [3] and 148 M⁻¹ s⁻¹ in data set [4].

These data come from PMC8162780.
